Experimental data: paper PMC4798592, “A Surfactant-Induced Functional Modulation of a Global Virulence Regulator from Staphylococcus aureus” (PLoS ONE, 2016)

Biological target: the molecule itself
Assay: cross-linking; glutaraldehyde-mediated cross-linking of rSarA (10 uM) in buffer B [20 mM phosphate buffer (pH 8.0), 100 mM NaCl, 5% glycerol] or buffer C (buffer B with 0.7 mM TX-100); analysed by SDS-13.5% PAGE

B1: recombinant S. aureus SarA (rSarA) (natural protein)
chain: MAITKINDCFELLSMVTYADKLKSLIKKEFSISFEEFAVLTYISENKEKEYYLKDIINHLNYKQPQVVKAVKILSQEDYFDKKRNEHDERTVLILVNAQQRKKIESLLSRVNKRITEANNEIEL
notes: source: purified as described [8]
  stoichiometry N: 2
